Test results taken from patent CN107674122A (TIANJIN TIMMUNE BIOTECH INC, dated 2018).

Tests used:
[1] = molecular target: IgG (coated control antigen); experiment: phage ELISA, IgG coated, A650
[2] = molecular target: T1, 牛血清白蛋白 (bovine serum albumin) (bovine, UniProt P02769 25-607); experiment: ELISA, antigen coated, purified HF11-FC, A650
T1 construct: also called BSA

[3] = molecular target: T2, 人血清白蛋白 (human serum albumin) (human, UniProt P02768 25-609); experiment: ELISA, HSA coated, A650
T2 construct: also called HSA

[4] = molecular target: T2, 人血清白蛋白 (human serum albumin); experiment: phage ELISA, HSA coated, A650

T2 sequence (P02768 25-609 limits assumed): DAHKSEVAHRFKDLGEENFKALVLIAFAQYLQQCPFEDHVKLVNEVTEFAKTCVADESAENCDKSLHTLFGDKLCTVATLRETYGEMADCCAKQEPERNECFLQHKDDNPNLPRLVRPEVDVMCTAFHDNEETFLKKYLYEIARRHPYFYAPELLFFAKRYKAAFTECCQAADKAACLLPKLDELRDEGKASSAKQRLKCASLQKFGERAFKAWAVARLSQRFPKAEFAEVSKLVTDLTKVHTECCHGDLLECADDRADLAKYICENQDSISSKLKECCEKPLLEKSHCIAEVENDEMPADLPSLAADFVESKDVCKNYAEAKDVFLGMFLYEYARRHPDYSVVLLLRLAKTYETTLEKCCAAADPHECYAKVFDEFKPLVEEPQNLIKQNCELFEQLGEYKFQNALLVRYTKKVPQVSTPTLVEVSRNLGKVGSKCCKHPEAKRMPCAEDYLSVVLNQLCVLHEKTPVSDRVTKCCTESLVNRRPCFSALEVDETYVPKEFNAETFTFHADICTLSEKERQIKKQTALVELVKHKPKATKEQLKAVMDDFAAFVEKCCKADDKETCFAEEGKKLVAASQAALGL
T1 sequence (P02769 25-607 limits assumed): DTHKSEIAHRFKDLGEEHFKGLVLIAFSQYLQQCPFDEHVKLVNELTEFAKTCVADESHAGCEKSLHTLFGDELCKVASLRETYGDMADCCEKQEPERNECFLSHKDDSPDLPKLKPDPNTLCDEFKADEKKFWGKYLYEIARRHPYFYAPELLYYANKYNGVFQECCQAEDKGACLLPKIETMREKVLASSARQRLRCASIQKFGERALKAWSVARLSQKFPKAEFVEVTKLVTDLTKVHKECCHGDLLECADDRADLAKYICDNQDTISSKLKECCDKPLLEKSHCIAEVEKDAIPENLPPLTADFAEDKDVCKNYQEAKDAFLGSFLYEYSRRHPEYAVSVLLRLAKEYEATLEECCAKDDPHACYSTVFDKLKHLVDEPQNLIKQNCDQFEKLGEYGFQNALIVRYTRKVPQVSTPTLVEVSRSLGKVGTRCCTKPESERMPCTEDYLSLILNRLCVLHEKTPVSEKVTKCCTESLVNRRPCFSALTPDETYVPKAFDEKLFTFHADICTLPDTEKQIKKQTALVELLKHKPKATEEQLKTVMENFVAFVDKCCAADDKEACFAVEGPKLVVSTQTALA

| Binder | A650 [1] [A650] | binding result [2] | binding result [3] | binding result [4] |
| --- | --- | --- | --- | --- |
| HF11 单域抗体 (phage-displayed clone, culture supernatant) (VHH, Human heavy-chain single domain antibody on a DP47 framework; Tested in ELISA as phage in culture supernatant; not shown: Myc and VSV-G tags and phage GIII protein of display vector pBG3) VHH: QVQLLESGGGLVQPGGSLRLSCAASGVKISYESMAWVRQAPGKGLEWVSSILMQNGSTYYADSVKGRFTISRDNSKNTLYLQMNSLRAEDTAVYYCATTRVRRPANMKYWGQGTLVTVSS | ≤ 0.3 |  |  |  |
| 融合蛋白HF11-FC (expressed from pcDNA3.1 in 293F cells) (Fc fusion, The secreted protein was purified on Protein A; not shown: human Fc; residues encoded by the BamHI site between the single domain antibody and Fc; no) QVQLLESGGGLVQPGGSLRLSCAASGVKISYESMAWVRQAPGKGLEWVSSILMQNGSTYYADSVKGRFTISRDNSKNTLYLQMNSLRAEDTAVYYCATTRVRRPANMKYWGQGTLVTVSS |  | no binding | binds |  |
| HE9 单域抗体 (phage-displayed clone, culture supernatant) (VHH, Human heavy-chain single domain antibody on a DP47 framework; Tested in ELISA as phage in culture supernatant; not shown: Myc and VSV-G tags and phage GIII protein of display vector pBG3) VHH: QVQLLESGGGLVQPGGSLRLSCAASGFMVTSEIMGWVRQAPGKGLEWVSTIVANNGSTYYADSVKGRFTISRDNSKNTLYLQMNSLRAEDTAVYYCASPPRRTGVDGTESMHFWGQGTLVTVSS | ≤ 0.3 |  |  | binds |
| HB5 单域抗体 (phage-displayed clone, culture supernatant) (VHH, Human heavy-chain single domain antibody on a DP47 framework; Tested in ELISA as phage in culture supernatant, detected with an HRP-labelled anti-phage antibody; not shown: Myc and VSV-G tags and phage GIII protein of display vector pBG3) VHH: QVQLLESGGGLVQPGGSLRLSCAASGVKAINHTMGWVRQAPGKGLEWVSAIRTPDGSTYYADSVKGRFTISRDNSKNTLYLQMNSLRAEDTAVYYCASVGDNAGSSSPPFASWGQGTLVTVSS | ≤ 0.3 |  |  | binds |
